According to paper PMC6453957, “Specific inhibition of splicing factor activity by decoy RNA oligonucleotides”:

Target: T1, RBFOX1 RRM (UniProt Q9NWB1 109-208)
T1 sequence: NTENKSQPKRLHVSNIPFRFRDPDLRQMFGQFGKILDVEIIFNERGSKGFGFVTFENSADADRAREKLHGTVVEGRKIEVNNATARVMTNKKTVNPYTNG
Experiment: NMR 1H-15N HSQC titration; 313 K; very large perturbations; switchSENSE titration: T100 (10 mM Tris-HCl pH 7.4, 100 mM NaCl, 0.05% Tween20), 37 C; sizing: T40 (same with 40 mM NaCl), 37 C; NMR: NMR buffer (RNA in T40), 313 K
Details: protein: recombinant; tags: N-terminal 6xHis; single strand

Binder: UGCAUGU (ssRNA) [RBFOXi NMR RNA]
- binding result: binds
